According to PMC8050864:

Tests used:
[1] = molecular target: PFV IN(ΔCTD) intasome: full-length PFV IN(K120E) at the inner protomers, PFV IN(D273K, ΔCTD) at the outer protomers (prototype foamy virus); assay: pull-down
[2] = molecular target: FL PFV intasome (tetramer of full-length prototype foamy virus integrase bound to two viral DNA ends) (prototype foamy virus); assay: pull-down

Q: With “601 nucleosome treated with trypsin to remove the histone tails (from UniProt P04908 1-130; O60814 1-126; P68431 1-136; P62805 1-103) (complex)” as the substance, how does the percent of the lane's Coomassie signal in the TL H4 band on the beads [1] read?
A: 2.5%

Q: And the percent of the lane's Coomassie signal in the TL H4 band on the beads [2]?
A: 11.2%
